Assay: soluble on expression in E. coli; label from the status in PepcDB or PDB records

MGSDKIHHHHHHMIEITHGDILRADTEAIVNTVNCVGVMGRGIALQFKKAWPDNFKAYAAACNSKNVQPGKMFIFETGQLANPRFIINFPTKRHWKGASRIEDIESGLVALVADIQRLGIKSIAIPPLGAGLGGLDWLVVRDKIEAAMQPLTDVQILLYEPAGAPQNDRIAKQKEVPKMTAGRAVLIELMQRYLKGLLDPTVSLLEVHKLLYFMQEAGEPLRLKYEKAHYGPYAQNLRHVLNAIEGHFISGYADGGDKPEKELRLVPGAVKEAQEFLEQHPDTRERFTKVSELVEGFESPLGLELLATVHWLNKYEHVRSTDQVIESVHSWNTRKQLFTARQITIAEKVLARQNWLSA
soluble on expression in E. coli: not soluble

MGLIKENRMDSLKVSDYMTLQAVTFSPDMSLSAALEKVVRSDNMGGPVIDAQRHVIGFLSEQDLLDKLVHASYHCQDAHLVSDCMHKEVLSVAPETSIIELAAMMKVGKPKMYPVVSDGKLVGVITRRDVLRALSKTLTNCFQHPV
soluble on expression in E. coli: not soluble

MTTAGYYAAVDWGTSSFRLWIIGEDGAVLAERRSAEGMTTAAKTGFHTILDGHLAAVSAPAHLPIIICGMAGARQGWKEAGYIETPAALAEIAGRATAIPDVDRDIRILPGLAQRDRRHPDVMRGEETQLLGAAAHLGAGSHLVCMPGTHSKWVRLADDRVEGFSTFMTGELFDTIARHTILSHAVAEADTFAAGSAAFTDAVSRTRENPALATNLLFSVRAGQLLHGTAAADARAQLSGTLIGLEIAGALAGSGSVDGVCLVGSGGLGTLYRTALESQGLNVRAVDADEAVRAGLSAAARAIWPL
soluble on expression in E. coli: not soluble

MMSVPVMADEGTKWDWPLQKGDGVVNVLDDDDHFEVGLEAHNFLPKEIEVKNIGELLEIHMEHNVKKDSFGDVSRNITRCYKLPKNVDMKTIKSNLDSHGILHIEARKMH
soluble on expression in E. coli: not soluble

MGSDKIHHHHHHMRVIKVKTISETLDYISKHTASVARFGDGEIDIIAGNSIPYQVYASALAARLERLLNRQSNEKLVICVSDVFDNLGRYNDFSQQFWRDHLYQYNDLYQKNCQAEWYGSTFISRPYMDLLDKSLSVTYFEQLKALWKNKDILIVEGETSRSGVGNDLFNDANTISRIICPSKDAFSSFYEIKETILEHSRGKLILLMLGPTAKLLAEDLSQLGHQAIDLGHIDSEYEWFKMGAVSKVKLSHKHTAEHNFDEDITLIEDNSYENQIVSKIGTSDRQYALTVTLTDDIWELEHLLQRCPNTDFHIAAPVYCSDRLKQLVGYPNYYLHEAITEEQFEVLLLNSDIYLDINHGEEVWNVVDRCITEGKTIYGIRRARKDNQYISFERTMDDFEYLCDTIKQNR
soluble on expression in E. coli: not soluble

MAHHHHHHMVVSLIGPLDSPYVQRTLLVAAYAGIQLKLVPIQIGRENETEEYRLNCHPMQRVPVMKTDEGYLFESNAMIRYLARTEVMLVSVSAGIDSAGANNEKIPHPQYPIPYAMYGHSLLESTQVDSWLDFAITRIDFYTRQFFAYEHKTGPKPAADMKTLLCKSLDGLERRVAYLKEACRALVQQSGSLTSRSVMTDEELVWNEEDYMASRATRDSRLSSVYNVAGSIRQRHMEKERQEREKQLMLIKKTTDDALGKEEGADDPHHPSRRPSVSRDSMAISATPRASVLMSARSTMGSAAPGVQRHDLLFLVGGSLTAADLVMAMSLHGVLCCQELKPVLTSKYPNLFKYYKSVLMLPVAAEVRKAIRLSIIKE
soluble on expression in E. coli: soluble

MGHHHHHHSHMFIASKKSYFEAVYRSTVSSHSEEFWKSDDPVYFTQYKKQCNRLPNAYLGTLHSASKYSENFRHYVATFSNSPLDFPQSVFNERNPCEYSVPYLDSALQCSAKTLVGCSVSTTERNEYEVCKEATRCFKDAMSHKVLKVFLSNLSWFLKGHYKSKQAFLEPFQKQLILHSFMFVASIKCPETTTKLFDEFKFLLDMLYFDNTDLLTFLQKSPAFLIPRRHGKTWIVTAIISMLLTSVDDLHIGYVAHQKHVSLAVFLEISNILLAWFPRKNIDIKKENGVILYSHPGKKSSTLMCATCFNKNVSVI
soluble on expression in E. coli: not soluble

MGSDKIHHHHHHMLNEIITIYAITDDLLKAIGHDDDIRRDMIDAEIITTALVAAMFFNGNHSKACAYMKDHKLIPNMLEKSRFNLRLHNLSMLLNDLFHQIGMIIKEISDSTEYLLDSFPVTICDNIRIFQVHLIQSEEYRGYIASKKRYFYGVRVQLISTKSGIPVEFAFLPGSANDVRGLNALPFNLPPGSEVYADAAYTDYTVEDDMAQSSQISLKVMRKKNSKRQDQPWNQYVKQYTRHYIETVFSCITCIFPKSIHAVTYEGFLLKLQAFIFAFTLKSAFM
soluble on expression in E. coli: not soluble

MNLDDKALFLDAMEDVQPLKRHTDVHWQPTRNLKTPQRIDTLQLDNFLTTGFLDILPLNEPLEFRREGLQQGVIDKLRSGKYPQQASLNLLRQPVETCRKMLFRFILEAQKEGLRNVLIIHGKGREAKSHANIVRSYVARWLTEFEDVQAYCSALPHHGGGGACYVALRKTVQAKQDNWERHAKRSR
soluble on expression in E. coli: not soluble

MGSDKIHHHHHHMPIKVSPVAGSRFYIGSAPVDVPDTDVTEADFSAVTWIEVGQYETMGNSGDSAQGNTVNLLNRRRTYNWKGSRQAPQRSDNFALNTSDPGQLAMIAAEATDFNYPFKVELNGAPIPKSATAIITIASPGVVTWTGHNLAANTAVKFSTTGALPTGLTAGTSYYVKTVLDADTFTLSATKGGPVIATTGTQSGTHTATTIPSGPQRLFMGQVLAAEEGMGGANNAQMLNCTVLPNTNYVRVAALG
soluble on expression in E. coli: not soluble

MAVGEVMRMEIPAGGDLTVTTPELHVLAVDDSIVDRKVIERLLRISSCKVTTVESGTRALQYLGLDGGKGASNLKDLKVNLIVTDYSMPGLSGYDLLKKIKESSAFREVPVVIMSSENILPRIQECLKEGAEEFLLKPVKLADVKRIKQLIMRNEAEECKILSHSNKRKLQEDSDTSSSSHDDTSIKDSSCSKRMKSESENLFSLL
soluble on expression in E. coli: not soluble

MGSDKIHHHHHHMTGLTEDLFGELLPPASPPQACVAGGGAPSPDKASRGKSVLPARPDPAIDALARRLPPNLYLGTSSWSYNGWNGLVYDGEYSDNLLSRKGLAAYSRHPLLRAAGIDRGFYGPIPLADYLSYAAQVPEQFRFLVKAPASVCDAWLRGSDGVGRLANAAFLDAEIAIRDFITPATSGLGAKCGPLLFQLSPLGSLANDAAAFLDRLDGFLSALPPLDPSITPHACYAVEMRDPVLLTPRYIKLLRRYGVRFCLSARDRLPPVHRQASAQALMDAEAPGPLVLRWMLHAGRPYEVAESIYAPFNRLVDEDPETRDAIADLVVRTLNAGQSATVIISNKAEGSAPLTCIRLAEAIAARL
soluble on expression in E. coli: not soluble

MKFFNREKEINEILLILEEEPNNIYFIYGPLNSGKSTLIREVITNRLDKSKYIPFFIDFRTRNILNVDNFIECLFEVDEKSKIDDFREYAKSLADLLVKGSEEISKYYLGMPIKVPKPFFDRIFSKRDKSADVYQYIEYLFAKLNEKGKKPILIFDELQMIREITLNGNRLLLWSLFQFLVALTKVQHLCHVFCLSSDSLFIEYIYGKAELKGGVDYILVDDFDKKTALKFMDFLAKQKNINLTNEDKELIYSYVGGKAKYIYDVIVKLKAVKDLKYILETKLEEERNHLEELLEKVEEDYEGINYDEVLEALKLFKDNYELPKSKIKRKIRIFLIKENILFLNPQKGTLKPQSYLVWNAIKRML
soluble on expression in E. coli: not soluble

DLHNMLLTRNQELDVAYQTIRQDLESAGDLMRQLLPVEQQIGATKLSYSYLPCSQLGGDMLGYAALDEQHVAFYVFDVSGHGISSALMSFSIQKTLSRSCGPESVTTDLVEGEYVVSEPNVVVERLNLRYQQTPDSQLYFTIVYAVLNTQTGKLRYCTAGHPKFLWRHQSEATIDMVGDENFIVGALAPMQYKGGEITLEPNDSIWCFSDGVVEARYENEFFSVNRLIANVQSVSGLPFEAQVSSVVESIKRWQVKEELDDDLTLLQLQWFGPNTSTCEGEDD
soluble on expression in E. coli: not soluble

MAGHSHWAQIKHKKAKVDAQRGKLFSKLIREIIVATRLGGPNPEFNPRLRTAIEQAKKANMPWENIERAIKKGAGELEGEQFEEVIYEGYAPGGVAVMVLATTDNRNRTTSEVRHVFTKHGGNLGASGCVSYLFERKGYIEVPAKEVSEEELLEKAIEVGAEDVQPGEEVHIIYTVPEELYEVKENLEKLGVPIEKAQITWKPISTVQINDEETAQKVIKLLNALEELDDVQQVIANFEIPEEILQKVGLEHHHHHH
soluble on expression in E. coli: not soluble

LVSSPSTLNPGTNVAKLAEQAPVHWVSVAQIENSLTGRPPMAVGFDIDDTVLFSSPGFWRGKKTYSPDSDDYLKNPAFWEKMNNGWDEFSIPKEAARQLIDMHVRRGDSIYFVTGRSQTKTETVSKTLADNFHIPAANMNPVIFAGDKPEQNTRVQWLQEKNMRIFYGDSDNDITAARDCGIRGIRILRAANSTYKPLPQAGAFGEEVIVNSEY
soluble on expression in E. coli: soluble

MGSDKIHHHHHHMIARKLADLGVDVIEAGFPASSEGEFIATRKIFEEIGDQVEVIGLSRSNKNDIDKTISTGISSIHLFIATSELHMKYKLKMTKEEVLNKIYESVKYAKDHGMIVEFSPEDATRTEEDFLFTAIRTAIEAGADRINIPDTVGTMHPFKYYDMIKKIVNFVGERIIVSVHCHNDFGLATANSLAGVYAGARQAHVTVNGIGERAGNASLEEVVMGIKKLLNYETNVKTWKLYEVSRFVAEMTGVPVPYFKAIVGDNAFGHESGIHVHGVIENPFTYEPISPEEVGNFRRLALGKHSGIHGLRKLLEEQGIYLSDDKLKIVLAEIKKLAESGNKVTVEDAKNIALKLMNS
soluble on expression in E. coli: not soluble

MSISTIRRQVKNVAYNFSDAQVKVREATSNDPWGPSTALMSEIADLTHNPMAFTEIMSIVWKRLNDSGKNWRHVYKSLVLLDFLIKCGHEKVAQQCRENVFTIETLKDFQHVEDNRDQGLNIREKAKQITSLLSDDERLKNERTRFILTRNKFKQNNPGPVGAESRRSNRHHVTDASLDPEYEDARPSTATEEEMQLQIALALSREECEKADEMRKSDDARLQMALEESQKLQDADRLATTKQGTVSSGQLTQSALDDLLSLGVGELVSGNNDQPSSSSAWGMNDPWGAPQASASLNTNDQMFANSMSNNDPWATSTVAQPVAATAPNSDPFASWDAPAPAATTPSTMPTSSSFDLLGGDLLSPTNSLSANINTNNSTNGTRKTPENFLGENSNLVNLDNLLGSGTPSTTGGNPFLTGAAPANANPFAAQQRKSPTLNEMRAAQGQAPPIPSMAPRGTLPQANPFANPF
soluble on expression in E. coli: not soluble

SYMYDRDGSLVSEIVSDHENRVLVPFNKIPEEVKQIFLTSEDRHFYEHKGFDFMGMVPPTASNVKDKKIDQGASTITQQLSRNLYLSHERSFSRKLTELAYSYQLEKKYTKNEILEAYLNTIYFNNGVYGVGSAAQFYFSKPLKSLTVGEMAFICAIPNNPTLYDPLKHF
soluble on expression in E. coli: not soluble

MIETTLTGKTPDIGEENIKKLMTMFPEVVTEGKVDFEKLKQLLGEYVDDSNERYNFTWNGKGRALRLSQTPSLGTLRPCKEESKNWDTTQNLYIEGDNLEVLKLLQKSYYGKIKMIYIDPPYNTGKDFVYRDDFHDSLENYKRITGQVDGNGKAISTNTETSGRYHTDWLNMMYPRLRLARNLLSDDGVIFISIDDNEVDNLKKICNEIFGEDNFIANCVRKRRDSQANLSQNISPIHEYVLIYAKRFGNILNKVTPSLDMGSYKNPDNDPRGPYTTMPCTNVGGAVYSIVTPTGKTITDEWRFKKETFEKLLLDNRIVFPRNGEGKPRYKIFLSEKMAEGVLANTWLDKIASNQEGTREIKELFGGLLFNNPKPTGLLKFLLELGSSKDSIILDFFSGSATTAHAVMQLNAEDGGNRRFIMVQLPEPTDENSEAYKAGYMNISEIGKERIRRAGEKIKEEYKDKGNIENLDIGFKVFKLDTSNIRKWQPDYDNLEQSLMDYVDNFVEGRTELDVVYEIMLKYGLDLTYPVDEFTIAGKKVYSIGYGMLMICLDNEITTEVAKGILTKIKELSPESSRVVFKDNGFKTDSNKTNIKEILKSGGIEEFITI
soluble on expression in E. coli: not soluble

From the DeepSol protein solubility set
